According to article PMC9930398, “SlMYB1 regulates the accumulation of lycopene, fruit shape, and resistance to Botrytis cinerea in tomato”:

B1: SlPSY2pro probe (dsDNA)
DNA 1: TCGGTTATCGGTTATCGGTTA
DNA 2: TAACCGATAACCGATAACCGA
B2: SlLCY1pro probe (dsDNA)
DNA 1: ACCGTTCACCGTTCACCGTTC
DNA 2: GAACGGTGAACGGTGAACGGT
B3: SlPR5pro probe (dsDNA)
DNA 1: TCCGTTCTCCGTTCTCCGTTC
DNA 2: GAACGGAGAACGGAGAACGGA

Biological target: SlMYB1-GST (Solanum lycopersicum, UniProt A0A3Q7I0H7 1-380)
Assay: EMSA; EMSA/Gel-Shift kit (Biyuntian/Beyotime) per instructions; buffer, salt, pH and temperature not stated
Details: protein: recombinant; tags: GST (pGEX-4T-1, N-terminal by vector); label: biotin; blunt

Sequence of SlMYB1-GST (A0A3Q7I0H7 entry or part of it): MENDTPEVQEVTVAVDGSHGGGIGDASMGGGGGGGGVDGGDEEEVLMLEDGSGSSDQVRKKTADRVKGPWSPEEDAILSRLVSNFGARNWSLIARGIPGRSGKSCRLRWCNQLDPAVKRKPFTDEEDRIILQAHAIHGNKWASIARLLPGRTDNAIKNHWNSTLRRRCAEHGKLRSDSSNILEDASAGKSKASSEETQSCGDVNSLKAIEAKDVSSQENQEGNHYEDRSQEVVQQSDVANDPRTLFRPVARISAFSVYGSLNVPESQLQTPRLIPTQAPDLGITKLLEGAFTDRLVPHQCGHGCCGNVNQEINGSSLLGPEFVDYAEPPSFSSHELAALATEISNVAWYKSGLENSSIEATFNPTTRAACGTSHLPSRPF

Binding result, binds:
B1
B2
B3
